One experiment has as its target T1, UBTF (human, UniProt P17480-2 1-727, limits assumed).
T1 construct: also called NP_001070151.1 (+3)
T1 sequence (looked up): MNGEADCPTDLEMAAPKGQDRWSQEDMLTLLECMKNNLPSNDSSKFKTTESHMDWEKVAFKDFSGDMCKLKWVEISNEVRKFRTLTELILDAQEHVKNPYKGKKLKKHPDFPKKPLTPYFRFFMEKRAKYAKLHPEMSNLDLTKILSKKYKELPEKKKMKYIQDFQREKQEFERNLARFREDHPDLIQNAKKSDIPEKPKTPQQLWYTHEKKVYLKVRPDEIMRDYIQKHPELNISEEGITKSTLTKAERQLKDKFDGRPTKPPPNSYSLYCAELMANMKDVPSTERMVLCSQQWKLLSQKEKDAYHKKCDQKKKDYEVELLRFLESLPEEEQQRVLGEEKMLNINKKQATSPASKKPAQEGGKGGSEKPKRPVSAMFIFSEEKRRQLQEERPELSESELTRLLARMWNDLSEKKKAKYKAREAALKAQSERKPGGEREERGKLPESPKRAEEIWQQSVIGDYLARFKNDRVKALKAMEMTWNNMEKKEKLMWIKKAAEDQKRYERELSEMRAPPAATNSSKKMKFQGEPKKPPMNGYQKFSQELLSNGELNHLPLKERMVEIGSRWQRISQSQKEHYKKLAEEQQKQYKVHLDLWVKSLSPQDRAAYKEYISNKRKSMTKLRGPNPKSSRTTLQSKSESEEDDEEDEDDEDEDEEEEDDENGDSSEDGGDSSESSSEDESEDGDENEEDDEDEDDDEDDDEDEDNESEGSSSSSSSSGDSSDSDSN
The experiment is described as follows: anti-FLAG co-IP from lysate of N-FLAG B3GNT2 cells, mass spectrometry. The method, then: (§1) Cells were plated in 10-cm cell culture dishes and grown to 60-80% confluency. For each condition, two biological replicates were harvested for co-IP. Cells were washed with PBS and 4 mL of lysis buffer (20 mM HEPES, 1% Triton X-100, 150 mM NaCl, 1 mM EDTA, and 10% glycerol) containing protease inhibitor cocktail was added. Cells were scraped and lysate was incubated at 4° C. under rotary agitation for 1 h. Lysate was centrifuged at 14,000×g for 10 min at 4° C. Supernatant was transferred to a new tube and an aliquot was taken as the input. […] For Western blots, 10 μg/mL Chicken Anti-FLAG (Aves labs ET-DY100) and IgY control (R&D Systems AB-101-C) antibodies were biotinylated (Thermo Fisher Scientific 90407) and added to the respective conditions. Lysates with antibodies were incubated at 4° C. under rotary agitation overnight. For each mL of lysate, 50 μL of Pierce Protein A/G Magnetic Beads (Mass spectrometry; Thermo Fisher Scientific 88803) or Pierce Streptavidin Magnetic Beads (Western blot; Thermo Fisher Scientific 88817) was washed twice with lysis buffer. Lysates with antibodies were added to the beads and incubated at 4° C. under rotary agitation for 4 h. Beads were washed with lysis buffer 3 times and resuspended in lysis buffer for storage.
(§2) Magnetic beads were resuspended in 100 mM Tris pH 7.8, reduced, alkylated and digested with trypsin at 37° ° C. overnight. This solution was subjected to solid phase extraction to concentrate the peptides and remove unwanted reagents followed by injection onto a Shimadzu HPLC with fraction collector. Eight fractions were collected and after concentration were injected on a Waters NanoAcquity HPLC equipped with a self-packed Aeris 3 μm C18 analytical column 0.075 mm by 20 cm, (Phenomenex). Peptides were eluted using standard reverse-phase gradients. The effluent from the column was analyzed using a Thermo Orbitrap Elite mass spectrometer (nanospray configuration) operated in a data dependent manner for 54 minutes. The resulting fragmentation spectra were correlated against the known database using Proteome Discover 1.4 (Thermo Fisher Scientific).

In the next experiment the target is T2, KTN1 (human, UniProt Q86UP2 1-1357).
T2 construct: also called NP_001072989.1 (+5)
T2 sequence (looked up): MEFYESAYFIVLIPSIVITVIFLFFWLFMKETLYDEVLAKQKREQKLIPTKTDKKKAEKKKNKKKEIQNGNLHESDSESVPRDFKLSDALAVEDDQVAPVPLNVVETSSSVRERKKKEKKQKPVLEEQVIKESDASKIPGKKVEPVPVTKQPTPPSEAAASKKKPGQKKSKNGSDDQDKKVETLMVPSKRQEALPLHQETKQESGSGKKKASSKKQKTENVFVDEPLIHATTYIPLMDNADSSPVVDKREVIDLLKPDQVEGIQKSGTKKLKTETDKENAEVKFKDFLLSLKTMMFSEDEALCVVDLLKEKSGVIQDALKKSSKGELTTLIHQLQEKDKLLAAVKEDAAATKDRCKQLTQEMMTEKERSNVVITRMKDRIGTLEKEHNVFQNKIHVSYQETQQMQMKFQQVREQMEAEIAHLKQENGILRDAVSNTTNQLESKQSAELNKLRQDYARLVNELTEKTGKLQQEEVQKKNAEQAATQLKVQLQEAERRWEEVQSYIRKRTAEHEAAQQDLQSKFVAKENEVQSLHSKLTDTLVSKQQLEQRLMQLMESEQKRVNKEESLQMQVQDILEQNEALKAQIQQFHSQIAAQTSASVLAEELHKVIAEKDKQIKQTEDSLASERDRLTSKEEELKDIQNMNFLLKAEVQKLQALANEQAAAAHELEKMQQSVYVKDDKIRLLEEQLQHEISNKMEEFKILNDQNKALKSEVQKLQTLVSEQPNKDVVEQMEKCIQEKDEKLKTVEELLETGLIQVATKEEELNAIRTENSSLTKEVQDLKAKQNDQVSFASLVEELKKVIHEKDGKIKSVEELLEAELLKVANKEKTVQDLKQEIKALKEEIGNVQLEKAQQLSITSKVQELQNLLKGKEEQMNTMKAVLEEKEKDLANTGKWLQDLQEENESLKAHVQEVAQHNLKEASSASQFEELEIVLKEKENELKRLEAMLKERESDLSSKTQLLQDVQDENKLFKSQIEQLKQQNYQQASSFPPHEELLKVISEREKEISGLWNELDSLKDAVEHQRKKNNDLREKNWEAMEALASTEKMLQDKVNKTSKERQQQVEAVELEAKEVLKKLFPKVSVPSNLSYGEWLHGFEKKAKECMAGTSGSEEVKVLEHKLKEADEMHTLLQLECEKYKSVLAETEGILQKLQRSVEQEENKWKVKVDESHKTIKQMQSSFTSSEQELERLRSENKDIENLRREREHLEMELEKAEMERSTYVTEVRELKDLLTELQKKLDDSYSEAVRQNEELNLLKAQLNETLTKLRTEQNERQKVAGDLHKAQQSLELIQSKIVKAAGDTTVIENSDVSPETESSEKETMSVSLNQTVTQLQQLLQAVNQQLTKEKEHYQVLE
The description is as above. The method, then:
as §1, §2

B1: N-terminal FLAG tagged B3GNT2 (enzyme, human, UniProt Q9NY97 1-397, looked up)
chain: MSVGRRRIKLLGILMMANVFIYFIMEVSKSSSQEKNGKGEVIIPKEKFWKISTPPEAYWNREQEKLNRQYNPILSMLTNQTGEAGRLSNISHLNYCEPDLRVTSVVTGFNNLPDRFKDFLLYLRCRNYSLLIDQPDKCAKKPFLLLAIKSLTPHFARRQAIRESWGQESNAGNQTVVRVFLLGQTPPEDNHPDLSDMLKFESEKHQDILMWNYRDTFFNLSLKEVLFLRWVSTSCPDTEFVFKGDDDVFVNTHHILNYLNSLSKTKAKDLFIGDVIHNAGPHRDKKLKYYIPEVVYSGLYPPYAGGGGFLYSGHLALRLYHITDQVHLYPIDDVYTGMCLQKLGLVPEKHKGFRTFDIEEKNKNNICSYVDLMLVHSRKPQEMIDIWSQLQSAHLKC
notes: Bait of the co-IP; pulled down from cell lysate with mouse anti-FLAG antibody; also called N-FLAG B3GNT2; N-term FLAG; not shown: N-terminal FLAG tag
As to B1, the “co-IP mass spectrometry count” value with UBTF and with KTN1 was 0 throughout.

Source of the values: US20240261333A1 (published 2024).
